According to PMC3183031, “An α/β Hydrolase and Associated Per-ARNT-Sim Domain Comprise a Bipartite Sensing Module Coupled with Diverse Output Domains” (PLoS ONE, 2011):
Numbering of substitutions follows the chain as printed. Numbers in names are those of the source.

B1: His-tagged wild type RsbP (natural protein, Bacillus subtilis, UniProt O07014 1-403, looked up)
chain: MDKQLNDAPCGFLALSEEGSIIAANRTLIKILDYEPEQVIGQHMNMMLTIPAQLFCQLYFFPLLKLEHHIEEIYISLKARDGEEIPVLINAIARHDSGASVFDCVLIPMRKRNEYENELLIARNEAQEALLAKQKANAELEIALETLKAKQEELLEINKQNQQFKLNTKRELELARKIQKNSLTEPIVNDQVQIDSYYNASSELSGDLYGYYQIDEHRYGIIILDVMGHGISSALITMSLHPLFQRQITQGLSPVKVMKELDRHLHSLFQNDEEARHYCTAIYLEIDIARQRIDYVNAGHPPALWQDDSGTQHLLHATSPPIGMFEDLEFQSSSLSYTEDGRLLLYTDGVMDPTASCYLFDLLKDHPDSPIADLKEKILTSLQHQKEAHHKSDDECFILVDVK
notes: RsbP serine phosphatase, Bacillus subtilis; called full-length in the results and discussion; predicted monomer mass of the His-tagged protein 48,325; also called WT
B2: His-tagged RsbP-F55A (natural protein, Bacillus subtilis, UniProt O07014 1-403, looked up)
chain: B1 chain with F55A
notes: RsbP serine phosphatase, Bacillus subtilis, with F55A

Biological target: the molecule itself
Test: SEC; Superose 12 10/300 GL, 4°C, 20 mM Tris-HCl pH 6.9, 100 mM NaCl, 0.1 mM EDTA; protein applied at 2.5 mg/ml; calibrated with standard proteins

Protein	stoichiometry N	binding result
B1	4	–
B2	–	binds
